# From patent US20250027945A1
# What was measured:
# [1] = target: human RYK on the surface of human tumor cell lines (human) (UniProt P34925); assay: flow cytometry, SW620 cells (colon), isotype matched control mAb, equal amount
# [2] = target: human RYK on the surface of human tumor cell lines (human) (UniProt P34925); assay: flow cytometry, H446 cells (lung), isotype matched control mAb, equal amount
# [3] = target: human RYK on the surface of human tumor cell lines (human) (UniProt P34925); assay: flow cytometry, SK-MES-1 cells (lung), isotype matched control mAb, equal amount
# [4] = target: human RYK on the surface of human tumor cell lines (human) (UniProt P34925); assay: flow cytometry, REH cells (ALL), isotype matched control mAb, equal amount
# [5] = target: human RYK on the surface of human tumor cell lines (human) (UniProt P34925); assay: flow cytometry, HS-578T cells (breast), isotype matched control mAb, equal amount
# [6] = target: human RYK on the surface of human tumor cell lines (human) (UniProt P34925); assay: flow cytometry, HT29 cells (colon), isotype matched control mAb, equal amount
# [7] = target: human RYK on the surface of human tumor cell lines (human) (UniProt P34925); assay: flow cytometry, OVCAR4 cells (ovarian), isotype matched control mAb, equal amount
# [8] = target: human RYK on the surface of human tumor cell lines (human) (UniProt P34925); assay: flow cytometry, BT549 cells (breast), isotype matched control mAb, equal amount
# [9] = target: human RYK on the surface of human tumor cell lines (human) (UniProt P34925); assay: flow cytometry, PC3 cells (prostate), isotype matched control mAb, equal amount
# [10] = target: human RYK on the surface of human tumor cell lines (human) (UniProt P34925); assay: flow cytometry, DU-145 cells (prostate), isotype matched control mAb, equal amount
# [11] = target: human RYK on the surface of human tumor cell lines (human) (UniProt P34925); assay: flow cytometry, H460 cells (lung), isotype matched control mAb, equal amount
# [12] = target: human RYK on the surface of human tumor cell lines (human) (UniProt P34925); assay: flow cytometry of dissociated primary triple-negative breast cancer PDX cells M0026 (T1), fluorochrome-conjugated isotype control mAb; count 15903
# [13] = target: human RYK on the surface of human tumor cell lines (human) (UniProt P34925); assay: flow cytometry, NCI H226 cells (lung), isotype matched control mAb, equal amount
# [14] = target: human RYK on the surface of human tumor cell lines (human) (UniProt P34925); assay: flow cytometry, U937 cells (monocyte cancer), isotype matched control mAb, equal amount
# [15] = target: human RYK on the surface of human tumor cell lines (human) (UniProt P34925); assay: flow cytometry, SK-OV-3 cells (ovarian), isotype matched control mAb, equal amount
# [16] = target: human RYK on the surface of human tumor cell lines (human) (UniProt P34925); assay: flow cytometry, MDA-MB-231 cells (breast), isotype matched control mAb, equal amount
# [17] = target: human RYK on the surface of human tumor cell lines (human) (UniProt P34925); assay: flow cytometry, NALM6 cells (ALL), isotype matched control mAb, equal amount
# [18] = target: human RYK on the surface of human tumor cell lines (human) (UniProt P34925); assay: flow cytometry, HT144 cells (skin), isotype matched control mAb, equal amount
# [19] = target: human RYK on the surface of human tumor cell lines (human) (UniProt P34925); assay: flow cytometry, H292 cells (lung), isotype matched control mAb, equal amount
# [20] = target: human RYK on the surface of human tumor cell lines (human) (UniProt P34925); assay: flow cytometry, MINO cells (mantle), isotype matched control mAb, equal amount
# [21] = target: human RYK on the surface of human tumor cell lines (human) (UniProt P34925); assay: flow cytometry, MEC1 cells (CLL), isotype matched control mAb, equal amount
# [22] = target: human RYK on the surface of human tumor cell lines (human) (UniProt P34925); assay: flow cytometry, JURKAT cells (T-cell ALL), isotype matched control mAb, equal amount
# [23] = target: human RYK on the surface of human tumor cell lines (human) (UniProt P34925); assay: flow cytometry, CAPAN-1 cells (pancreas), isotype matched control mAb, equal amount
# [24] = target: human RYK on the surface of human tumor cell lines (human) (UniProt P34925); assay: flow cytometry, NCI H1155 cells (lung), isotype matched control mAb, equal amount
# [25] = target: human RYK on the surface of human tumor cell lines (human) (UniProt P34925); assay: flow cytometry, MOLT4 cells (T-cell ALL), isotype matched control mAb, equal amount
# [26] = target: human RYK on the surface of human tumor cell lines (human) (UniProt P34925); assay: flow cytometry, SW948 cells (colon), isotype matched control mAb, equal amount
# [27] = target: human RYK on the surface of human tumor cell lines (human) (UniProt P34925); assay: flow cytometry, CAPAN-2 cells (pancreas), isotype matched control mAb, equal amount
# [28] = target: human RYK on the surface of human tumor cell lines (human) (UniProt P34925); assay: flow cytometry, T47-D cells (breast), isotype matched control mAb, equal amount
# [29] = target: human RYK on the surface of human tumor cell lines (human) (UniProt P34925); assay: flow cytometry, SH-SY5Y cells (brain), isotype matched control mAb, equal amount
# [30] = target: human RYK on the surface of human tumor cell lines (human) (UniProt P34925); assay: flow cytometry, RAJI cells (Burkitt NHL), isotype matched control mAb, equal amount
# [31] = target: human RYK on the surface of human tumor cell lines (human) (UniProt P34925); assay: flow cytometry, HELA cells (ovarian as printed), isotype matched control mAb, equal amount
# [32] = target: human RYK on the surface of human tumor cell lines (human) (UniProt P34925); assay: flow cytometry, COLO 829 cells (melanoma), isotype matched control mAb, equal amount
# [33] = target: human RYK on the surface of human tumor cell lines (human) (UniProt P34925); assay: flow cytometry, HS683 cells (brain), isotype matched control mAb, equal amount
# [34] = target: human RYK on the surface of human tumor cell lines (human) (UniProt P34925); assay: flow cytometry, EW36 cells (NHL), isotype matched control mAb, equal amount
# [35] = target: human RYK on the surface of human tumor cell lines (human) (UniProt P34925); assay: flow cytometry, NCI H929 cells (melanoma as printed), isotype matched control mAb, equal amount
# [36] = target: human RYK on the surface of human tumor cell lines (human) (UniProt P34925); assay: flow cytometry, SK-MEL-2 cells (skin), isotype matched control mAb, equal amount
# [37] = target: human RYK on the surface of human tumor cell lines (human) (UniProt P34925); assay: flow cytometry, JEKO cells (mantle), isotype matched control mAb, equal amount
# [38] = target: human RYK on the surface of human tumor cell lines (human) (UniProt P34925); assay: flow cytometry, A549 cells (lung), isotype matched control mAb, equal amount
# [39] = target: human RYK on the surface of human tumor cell lines (human) (UniProt P34925); assay: flow cytometry, K562 cells (CML), isotype matched control mAb, equal amount
# [40] = target: human RYK on the surface of human tumor cell lines (human) (UniProt P34925); assay: flow cytometry, T24 cells (bladder), isotype matched control mAb, equal amount
# [41] = target: human RYK on the surface of human tumor cell lines (human) (UniProt P34925); assay: flow cytometry, SKBR3 cells (breast), isotype matched control mAb, equal amount
# [42] = target: human RYK on the surface of human tumor cell lines (human) (UniProt P34925); assay: flow cytometry, A673 cells (Ewings sarcoma), isotype matched control mAb, equal amount
# [43] = target: human RYK on the surface of human tumor cell lines (human) (UniProt P34925); assay: flow cytometry, RAMOS cells (Burkitt NHL), isotype matched control mAb, equal amount
# [44] = target: human RYK on the surface of human tumor cell lines (human) (UniProt P34925); assay: flow cytometry, MCF7 cells (breast), isotype matched control mAb, equal amount
# Sequence of human RYK on the surface of human tumor cell lines (human) (P34925 46-607 limits assumed, form in doubt): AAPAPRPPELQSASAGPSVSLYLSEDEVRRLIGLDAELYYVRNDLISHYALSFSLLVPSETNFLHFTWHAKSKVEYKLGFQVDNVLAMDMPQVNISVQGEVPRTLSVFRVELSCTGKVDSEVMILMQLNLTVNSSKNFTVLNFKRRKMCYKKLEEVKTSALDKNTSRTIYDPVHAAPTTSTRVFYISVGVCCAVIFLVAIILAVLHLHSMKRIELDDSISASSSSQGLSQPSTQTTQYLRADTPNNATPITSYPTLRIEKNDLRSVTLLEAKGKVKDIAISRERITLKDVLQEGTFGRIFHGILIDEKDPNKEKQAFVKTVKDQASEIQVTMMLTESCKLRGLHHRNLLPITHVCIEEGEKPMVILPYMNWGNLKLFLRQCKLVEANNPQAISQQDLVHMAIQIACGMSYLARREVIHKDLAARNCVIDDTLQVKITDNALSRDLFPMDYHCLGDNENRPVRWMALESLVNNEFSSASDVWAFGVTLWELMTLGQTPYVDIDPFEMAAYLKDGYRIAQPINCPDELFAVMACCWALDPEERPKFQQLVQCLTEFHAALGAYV
substance,measurement,setting,value
isotype matched control mAb (antibody),MFI,[1],5.6
same,MFI,[2],23.3
same,MFI,[3],156
same,MFI,[4],7.4
same,MFI,[5],7.3
same,MFI,[6],100
same,MFI,[7],61
same,MFI,[8],197
same,MFI,[9],2.8
same,MFI,[10],3.2
same,MFI,[11],58
same,Median : Comp-Alexa Fluor 647-A,[12],39.9
same,MFI,[13],6
same,MFI,[14],6.7
same,MFI,[15],5.6
same,MFI,[16],8.3
same,MFI,[17],5.7
same,MFI,[18],126
same,MFI,[19],107
same,MFI,[20],7.6
same,MFI,[21],4.3
same,MFI,[22],5.7
same,MFI,[23],86.9
same,MFI,[24],6.2
same,MFI,[25],5.1
same,MFI,[26],30.7
same,MFI,[27],4.7
same,MFI,[28],25.7
same,MFI,[29],4.1
same,MFI,[30],6.4
same,MFI,[31],6.1
same,MFI,[32],6.9
same,MFI,[33],229
same,MFI,[34],5.6
same,MFI,[35],43.8
same,MFI,[36],7
same,MFI,[37],3.9
same,MFI,[38],4.8
same,MFI,[39],2.8
same,MFI,[40],72.6
same,MFI,[41],73.9
same,MFI,[42],52
same,MFI,[43],6.1
same,MFI,[44],5.2
